Laboratory results reported in PMC3753931.

T1: GST-Xl-dsRBD (XlrbpA dsRBD2) (Xenopus laevis) (UniProt Q91836)
T1 sequence: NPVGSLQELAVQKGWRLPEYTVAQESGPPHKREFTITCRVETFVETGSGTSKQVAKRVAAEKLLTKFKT

T2: GST-Xl-dsRBD (XlrbpA dsRBD2) (Xenopus laevis, UniProt Q91836 112-180)
T2 sequence: T1 sequence

B1: 21blunt (dsRNA)
RNA 1: AAGUCACAUUGCCCAAGUCUC
RNA 2: GAGACUUGGGCAAUGUGACUU

Columns and labels:
[1] = molecular target: T1, GST-Xl-dsRBD (XlrbpA dsRBD2) (Xenopus laevis); assay: EMSA; settings: scale: fold higher affinity than P1
[2] = molecular target: T2, GST-Xl-dsRBD (XlrbpA dsRBD2); assay: EMSA

Molecule	binding signal [1]	binding result [2]
130-bp dsRNA	30	–
50-bp dsRNA	30	–
30-bp dsRNA	30	–
70-bp dsRNA	30	–
B1	–	binds
